Numbering of substitutions follows the chain as printed.
B1: 1h-82 (other)
VL: DIQMTQSPSSLSASVGDRVTITCRASQDIGLNLLWYQQKPGKAPTLLIYWSSMLQSGVPSRFSGSGSGTDFTLTISSLQPEDFATYYCQQGRMRPFTFGQGTKVEIKR
B2: 1h-86 (other)
VL: B1 VL with L31Q, N32S, L34V, T45K, S51A, G91V, R92M, M93R
B3: 1h-109 (other)
VL: B1 VL with L31A, N32S, T45K, W50F, G91S, R92G
B4: 1h-90 (other)
VL: B1 VL with D28T, L31H, N32G, L34V, T45K, M53H, G91T, R92L, M93R, R94T
B5: 1h-84 (other)
VL: DIQMTQSPSSLSASVGDRVTITCRASQSIGKGLMWYQQKPGKAPKLLIYWASMLQSGVPSRFSGSGSGTDFTLTISSLQPEDFATYYCQQSLRTPFTFGQGTEVEIKR
B6: 1h-85 (other)
VL: B5 VL with S28P, K31A, G32S, M34L, K45R, A51G, M53L, F83L, E103K
B7: 1h-112 (other)
VL: B5 VL with S28H, G30N, K31A, G32S, M34G, K45R, M53Q, S91M, L92V, E103K
B8: 1h-36 (other)
VL: DIQMTQSPSSLSASVGDRVTITCRASRDIALDLLWYQQKPGKAPKLLIKGWSGLQSGVPSRFSGSGSGTDFTLTISSLQPEDFATYYCAQGWGRPVTFGQGTKVEIKR
B9: 1h-110 (other)
VL: DIQMTQSPSSLSASVGDRVTITCRASRDIGHMLNWYQQKPGKAPKLLIWFGSVLQSGVPSRFSGSGSGTDFTLTISSLQPEDFATYYCVQGRLRPPTFGQGTKVEIKR
B10: 1h-80-2 (other)
VL: DIQMTQSPSSLSASVGDRVTITCRASQRIGSNLAWYQQKPGKAPKLLIYWASLLQSGVPSRFSGSGSETDFTLTISSLQPEDFATYYCQQTRSAPFAFGQGTKVEIKR
B11: 1h-87 (other)
VL: B10 VL with R28S, S31K, N32S, A51V, E68G, T91I, R92V, A94R, A97T
B12: 1h-81 (other)
VL: B10 VL with R28E, G30D, S31H, N32G, L53R, E68G, T91V, R92V, S93A, A97T
B13: 1h-79 (other)
VL: B5 VL with S28P, K31H, G32S, M34A, M53T, S91M, E103K
B14: 1h-80-7 (other)
VL: B10 VL with E68G, T69S, Q90E, A97T
B15: 1h-83 (other)
VL: B10 VL with R28S, S31H, N32S, A34V, P59S, E68G, T91S, S93A, A97T
B16: 1h-108 (other)
VL: DIQMTQSPSSLSASVGDRVTITCRASQYIGTALNWYQQKPGKAPKLLIYRRSHLQSGVPSRFSGSGSGTDFTLTISSLQPEDFATYYCQQIALTPYTFGQGTKVEIKR
B17: 1h-108-5 (other)
VL: B16 VL with M4I, K45E, R51G, A84V

The binders below were run against human CD28 (human, UniProt P10747 19-220) (assay: cell-based or functional assay).

Luciferase assay (EC50) | MLR assay (EC50) | Binder
1900 nM | – | B1
400 nM | – | B2
1000 nM | – | B3
1000 nM | – | B4
1500 nM | – | B5
530 nM | – | B6
775 nM | 850 nM | B7
570 nM | 1800 nM | B8
4100 nM | – | B9
62 nM | 550 nM | B10
1700 nM | – | B11
3300 nM | – | B12
3800 nM | 3200 nM | B13
322 nM | – | B14
1300 nM | 1700 nM | B15
1900 nM | 2700 nM | B16
1900 nM | – | B17
